In publication PMC9834408, “The SPOC domain is a phosphoserine binding module that bridges transcription machinery with co- and post-transcriptional regulators” (Nature Communications, 2023):
pKd: −log10 of the molar value.

Key:
[1] = biological target: WTAP peptide (first 19 N-terminal amino acids) phosphorylated at S14 (UniProt Q15007); test: fluorescence polarisation; fluorescence anisotropy; 90 nM labelled peptide (Atto-488 on CTD peptides, FAM on NCoR and FMR1 peptides) titrated with increasing concentrations of SPOC domain; 20 °C; 25 mM Tris-Cl pH 7.4, 25 mM NaCl, 1 mM DTT; three independent dilution series
2×S5P CTD diheptapeptide = test: as above

SHARP SPOC (3496–3664 aa), sequence (Q96T58 3496-3664): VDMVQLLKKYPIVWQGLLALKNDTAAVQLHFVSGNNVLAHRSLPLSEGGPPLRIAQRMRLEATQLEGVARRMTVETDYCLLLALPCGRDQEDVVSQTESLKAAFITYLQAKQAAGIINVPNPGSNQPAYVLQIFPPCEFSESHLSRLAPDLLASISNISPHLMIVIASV

Row | Substance | pKd [1] | pKd (2×S5P CTD diheptapeptide)
1 | RBM15 SPOC (775–960 aa) (from UniProt Q96T37 775-960) (domain or fragment) | 4.67 | 
2 | SHARP SPOC (3496–3664 aa) (from UniProt Q96T58 3496-3664) (domain or fragment) |  | 4.69
